Measurements taken from publication PMC5391180.

Molecular target: actin filaments of MCF-7 cells, marked by Lifeact-RFP (human (endogenous in MCF-7)) (UniProt P60709)
Test: FRET or BRET

Chain of GFP-tagged nonmuscle myosin IIC1 (alternatively spliced isoform of nonmuscle myosin heavy chain IIC) (natural protein) (Q7Z406 2-1995): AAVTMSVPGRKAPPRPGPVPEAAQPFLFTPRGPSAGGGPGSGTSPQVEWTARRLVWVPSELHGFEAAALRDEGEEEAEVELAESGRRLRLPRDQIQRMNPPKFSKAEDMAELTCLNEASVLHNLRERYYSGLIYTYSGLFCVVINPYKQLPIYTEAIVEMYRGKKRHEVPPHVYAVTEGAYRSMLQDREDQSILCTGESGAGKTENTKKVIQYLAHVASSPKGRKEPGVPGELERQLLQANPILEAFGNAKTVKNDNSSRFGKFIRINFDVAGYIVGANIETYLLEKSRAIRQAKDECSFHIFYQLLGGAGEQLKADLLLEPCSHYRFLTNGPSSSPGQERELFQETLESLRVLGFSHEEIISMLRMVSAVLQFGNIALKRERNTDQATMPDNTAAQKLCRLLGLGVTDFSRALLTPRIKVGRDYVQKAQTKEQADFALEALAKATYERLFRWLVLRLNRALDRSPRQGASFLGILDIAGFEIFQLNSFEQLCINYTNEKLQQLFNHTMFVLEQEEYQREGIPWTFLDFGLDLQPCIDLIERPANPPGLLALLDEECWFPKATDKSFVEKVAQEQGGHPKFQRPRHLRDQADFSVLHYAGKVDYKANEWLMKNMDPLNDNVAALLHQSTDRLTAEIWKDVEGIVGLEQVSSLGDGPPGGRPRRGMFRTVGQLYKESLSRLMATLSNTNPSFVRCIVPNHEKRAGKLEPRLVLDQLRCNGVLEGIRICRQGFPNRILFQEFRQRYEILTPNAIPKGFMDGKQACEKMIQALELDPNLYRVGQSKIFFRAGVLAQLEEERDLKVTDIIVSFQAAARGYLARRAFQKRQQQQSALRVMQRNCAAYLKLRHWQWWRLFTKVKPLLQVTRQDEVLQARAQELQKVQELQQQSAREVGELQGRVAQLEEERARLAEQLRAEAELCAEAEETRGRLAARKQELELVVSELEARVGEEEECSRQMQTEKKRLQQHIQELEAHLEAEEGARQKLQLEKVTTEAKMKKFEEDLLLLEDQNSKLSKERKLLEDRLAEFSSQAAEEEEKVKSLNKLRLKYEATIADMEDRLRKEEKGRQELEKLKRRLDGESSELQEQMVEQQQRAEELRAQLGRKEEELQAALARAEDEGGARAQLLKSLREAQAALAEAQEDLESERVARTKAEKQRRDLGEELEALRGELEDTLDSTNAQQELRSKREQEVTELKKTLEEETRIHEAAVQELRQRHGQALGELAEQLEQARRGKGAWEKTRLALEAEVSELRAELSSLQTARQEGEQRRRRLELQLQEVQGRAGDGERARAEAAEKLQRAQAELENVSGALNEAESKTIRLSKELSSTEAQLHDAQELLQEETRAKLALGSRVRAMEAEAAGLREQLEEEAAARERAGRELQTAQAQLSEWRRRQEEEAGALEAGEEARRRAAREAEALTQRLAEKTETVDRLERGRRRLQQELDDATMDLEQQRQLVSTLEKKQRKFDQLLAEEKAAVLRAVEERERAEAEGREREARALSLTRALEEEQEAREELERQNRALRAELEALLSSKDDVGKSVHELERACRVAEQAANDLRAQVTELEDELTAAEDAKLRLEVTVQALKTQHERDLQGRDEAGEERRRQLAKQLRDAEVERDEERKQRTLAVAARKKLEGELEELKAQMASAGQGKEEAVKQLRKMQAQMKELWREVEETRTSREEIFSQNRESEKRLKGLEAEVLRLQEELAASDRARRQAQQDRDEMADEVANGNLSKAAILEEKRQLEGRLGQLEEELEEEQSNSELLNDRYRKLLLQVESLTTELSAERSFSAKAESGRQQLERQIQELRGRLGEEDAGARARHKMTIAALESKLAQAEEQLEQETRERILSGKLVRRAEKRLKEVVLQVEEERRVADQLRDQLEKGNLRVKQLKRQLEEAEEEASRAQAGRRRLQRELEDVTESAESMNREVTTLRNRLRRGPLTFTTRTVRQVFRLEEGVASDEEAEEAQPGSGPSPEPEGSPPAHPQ

Row | shorter average dwell time tau1, high-FRET state, cell cortex | dwell time tau, high-FRET state, bleb cortex | longer average dwell time tau2, high-FRET state, cell cortex | Substance
1 | 35 s | – | – | GFP-tagged nonmuscle myosin IIC1 (alternatively spliced isoform of nonmuscle myosin heavy chain IIC) (natural protein)
2 | 33 s | 46 s | – | GFP-tagged nonmuscle myosin IIA (nonmuscle myosin heavy chain IIA, NMHC-IIA) (from UniProt P35579 1-1960) (natural protein)
3 | 35 s | 93 s | 110 s | GFP-tagged nonmuscle myosin IIB (nonmuscle myosin heavy chain IIB, NMHC-IIB) (from UniProt P35580 1-1976) (natural protein)
